The text below walks through data of publication PMC4932527.

For this experiment, the target named is human LEPTIN receptor expressed in 293FT cells (human) (UniProt P48357).
Chain of UniProt P48357 (P48357 22-1165): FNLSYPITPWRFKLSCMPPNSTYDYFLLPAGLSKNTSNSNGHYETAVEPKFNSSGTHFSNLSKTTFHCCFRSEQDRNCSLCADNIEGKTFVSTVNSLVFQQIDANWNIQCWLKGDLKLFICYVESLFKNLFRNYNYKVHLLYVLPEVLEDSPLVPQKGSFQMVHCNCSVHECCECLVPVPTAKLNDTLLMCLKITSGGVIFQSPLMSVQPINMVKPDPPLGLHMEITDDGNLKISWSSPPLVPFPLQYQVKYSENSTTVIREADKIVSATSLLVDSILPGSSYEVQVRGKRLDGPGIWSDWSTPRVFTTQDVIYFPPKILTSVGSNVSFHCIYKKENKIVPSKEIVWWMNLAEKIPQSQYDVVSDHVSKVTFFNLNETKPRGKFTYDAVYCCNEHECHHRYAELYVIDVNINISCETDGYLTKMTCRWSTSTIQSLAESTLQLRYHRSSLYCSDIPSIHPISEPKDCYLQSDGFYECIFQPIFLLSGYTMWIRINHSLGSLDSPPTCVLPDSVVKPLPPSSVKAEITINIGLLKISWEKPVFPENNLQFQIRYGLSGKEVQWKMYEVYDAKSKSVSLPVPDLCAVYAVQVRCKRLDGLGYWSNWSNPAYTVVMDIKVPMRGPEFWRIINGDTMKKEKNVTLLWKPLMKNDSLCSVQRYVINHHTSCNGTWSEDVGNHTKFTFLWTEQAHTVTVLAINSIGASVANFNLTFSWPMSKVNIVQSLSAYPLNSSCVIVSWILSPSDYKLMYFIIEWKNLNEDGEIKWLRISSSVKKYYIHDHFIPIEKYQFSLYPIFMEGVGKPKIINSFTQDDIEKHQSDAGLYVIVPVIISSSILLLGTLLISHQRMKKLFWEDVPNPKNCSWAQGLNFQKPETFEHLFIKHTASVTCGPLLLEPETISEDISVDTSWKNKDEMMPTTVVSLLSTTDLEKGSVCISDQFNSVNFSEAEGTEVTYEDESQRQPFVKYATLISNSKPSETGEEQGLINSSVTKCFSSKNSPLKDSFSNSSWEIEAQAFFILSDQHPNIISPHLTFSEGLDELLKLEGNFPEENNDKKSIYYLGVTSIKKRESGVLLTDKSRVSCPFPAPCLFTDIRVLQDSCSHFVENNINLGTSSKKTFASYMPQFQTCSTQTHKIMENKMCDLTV

As to “recombinant rat LEPTIN, wild type (from UniProt P50596 22-167) (ligand)”, the STAT3 luciferase reporter (pGL6-Stat3, normalised to renilla) in 293FT cells transfected with LEPR, treated with different concentrations of recombinant LEP; EC50 of activation came to 3e-09 M.
